Source: publication PMC5751167, “Buprofezin Is Metabolized by CYP353D1v2, a Cytochrome P450 Associated with Imidacloprid Resistance in Laodelphax striatellus” (International Journal of Molecular Sciences, 2017)

How the values were obtained:
[1] = substrate: O=[N+]([O-])NC1=NCCN1Cc1ccc(Cl)nc1; experiment: substrate depletion, Sf9 microsomes; type: biochemical, Laodelphax striatellus; conditions: 0-50 µM substrate; CPR co-expressed
[2] = substrate: COc1ccc([N+](=O)[O-])cc1; experiment: cells, lysate or membranes; type: biochemical, Laodelphax striatellus; conditions: NADPH, 30 °C, 1 pmol P450, 0-100 µM substrate, CPR co-expressed

B1: CYP353D1v2 (Laodelphax striatellus) (protein)
chain: MVKINGKWLTKYFSTAKVKPYDEIPTLPKWPFLGHAYLFFPNGKYKLERLGDAILDLRRTLGNIFKLNLNGDDLVVSLNPDDARSMYTAEGKLPYRPSFPALANYRKNTFGSIGVVPGNGEEWLHYRKAVLPLLKSNIVVAYAEDHKLIASRFVDYIGRNRGRSNELNDVFNHLLKFAIEATSITCPGVLFNCLDESLDKSDVSNVVTKASVDFMEGMYRTLVEPPFWKMWKTKSYRKLEQSHTAIHRLIADGIEKTKEDLKNNPNKHPFMASLFENSTLSENEILVLAMEVFLGGLDATPTTLAMTLHYLAQNPEAQSKAFNEISSQKQLKYVEACLKETLRLAPSAGASSRYLAEEAVLSGYLVPANTLVAVFSPITSRDEKYFHSPLEFIPERWFRENKAMRHPFASIPFGFGARVCPGRHFVNQEMVIFLTEILRNFKLNSNNGQVGMIHRMNRIPDQEIAIFFNDR
notes: with NADPH--cytochrome P450 reductase
Km [1]: 6.41 ± 1.27 µM
kcat [1]: 0.001 ± 1.3e-05 s⁻¹
Km [2]: 6.21 ± 0.65 µM
